Results published in paper doi:10.1101/262477 (bioRxiv, 2018).
Where two headings read alike, the source gives them in different places.

Assays:
[1] = molecular target: T1, NFS1-ISD11 complex (SD), purified, His tag removed (human, UniProt Q9Y697 56-457; Q9HD34 1-91); assay: BLI
[2] = molecular target: T1, NFS1-ISD11 complex (SD), purified, His …; assay: BLI; remark: listed apart in the source

T1 sequence (Q9Y697 56-457, chain 1 of 2): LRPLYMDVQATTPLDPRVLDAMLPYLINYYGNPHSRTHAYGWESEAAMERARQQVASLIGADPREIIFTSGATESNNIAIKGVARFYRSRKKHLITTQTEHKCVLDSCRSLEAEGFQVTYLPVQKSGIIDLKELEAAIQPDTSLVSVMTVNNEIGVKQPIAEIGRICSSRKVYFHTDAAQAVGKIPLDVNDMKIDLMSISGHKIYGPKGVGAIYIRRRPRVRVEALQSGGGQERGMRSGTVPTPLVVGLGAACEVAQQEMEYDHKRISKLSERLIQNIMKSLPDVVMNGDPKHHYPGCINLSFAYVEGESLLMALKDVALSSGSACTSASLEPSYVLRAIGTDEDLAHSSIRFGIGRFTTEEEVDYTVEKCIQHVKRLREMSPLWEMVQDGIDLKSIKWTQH
T1 sequence (Q9HD34 whole entry, chain 2 of 2): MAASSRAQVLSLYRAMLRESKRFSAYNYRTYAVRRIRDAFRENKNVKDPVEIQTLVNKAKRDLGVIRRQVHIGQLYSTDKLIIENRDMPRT

B1: biotinylated human ISCU (Δ1-34), wild type (natural protein, UniProt Q9H1K1 35-167, looked up)
chain: YHKKVVDHYENPRNVGSLDKTSKNVGTGLVGAPACGDVMKLQIQVDEKGKIVDARFKTFGCGSAIASSSLATEWVKGKTVEEALTIKNTDIAKELCLPPVKLHCSMLAEDAIKAALADYKLKQEPKKGEAEKK
modifications: biotin (site not stated)
Kd [1]: 160 ± 26 nM
Kd [2]: 87.8 ± 7 nM
